In article PMC7374751, “TIMP-3 facilitates binding of target metalloproteinases to the endocytic receptor LRP-1 and promotes scavenging of MMP-1” (Scientific Reports, 2020):

B1: FLAG-tagged ADAMTS-4 lacking the C-terminal spacer domain (ADAMTS4-2) (domain or fragment, UniProt O75173 213-685, looked up)
chain: FASLSRFVETLVVADDKMAAFHGAGLKRYLLTVMAAAAKAFKHPSIRNPVSLVVTRLVILGSGEEGPQVGPSAAQTLRSFCAWQRGLNTPEDSDPDHFDTAILFTRQDLCGVSTCDTLGMADVGTVCDPARSCAIVEDDGLQSAFTAAHELGHVFNMLHDNSKPCISLNGPLSTSRHVMAPVMAHVDPEEPWSPCSARFITDFLDNGYGHCLLDKPEAPLHLPVTFPGKDYDADRQCQLTFGPDSRHCPQLPPPCAALWCSGHLNGHAMCQTKHSPWADGTPCGPAQACMGGRCLHMDQLQDFNIPQAGGWGPWGPWGDCSRTCGGGVQFSSRDCTRPVPRNGGKYCEGRRTRFRSCNTEDCPTGSALTFREEQCAAYNHRTDLFKSFPGPMDWVPRYTGVAPQDQCKLTCQAQALGYYYVLEPRVVDGTPCSPDSSSVCVQGRCIHAGCDRIIGSKKKFDKCMVCGGDGSGC
notes: ADAMTS-4 lacking the C-terminal spacer domain
B2: FLAG-tagged ADAMTS-5 lacking the C-terminal thrombospondin domain (ADAMTS5-2) (domain or fragment, UniProt Q9UNA0 262-874, looked up)
chain: SISRARQVELLLVADASMARLYGRGLQHYLLTLASIANRLYSHASIENHIRLAVVKVVVLGDKDKSLEVSKNAATTLKNFCKWQHQHNQLGDDHEEHYDAAILFTREDLCGHHSCDTLGMADVGTICSPERSCAVIEDDGLHAAFTVAHEIGHLLGLSHDDSKFCEETFGSTEDKRLMSSILTSIDASKPWSKCTSATITEFLDDGHGNCLLDLPRKQILGPEELPGQTYDATQQCNLTFGPEYSVCPGMDVCARLWCAVVRQGQMVCLTKKLPAVEGTPCGKGRICLQGKCVDKTKKKYYSTSSHGNWGSWGSWGQCSRSCGGGVQFAYRHCNNPAPRNNGRYCTGKRAIYRSCSLMPCPPNGKSFRHEQCEAKNGYQSDAKGVKTFVEWVPKYAGVLPADVCKLTCRAKGTGYYVVFSPKVTDGTECRLYSNSVCVRGKCVRTGCDGIIGSKLQYDKCGVCGGDNSSCTKIVGTFNKKSKGYTDVVRIPEGATHIKVRQFKAKDQTRFTAYLALKKKNGEYLINGKYMISTSETIIDINGTVMNYSGWSHRDDFLHGMGYSATKEILIVQILATDPTKPLDVRYSFFVPKKSTPKVNSVTSHGSNKVGSHT
notes: ADAMTS-5 lacking the C-terminal thrombospondin domain
B3: TIMP-1 (natural protein)
chain: not shown
notes: also called T1
B4: Receptor-associated protein (RAP), recombinant His-tagged (natural protein, UniProt P30533 35-357, looked up)
chain: YSREKNQPKPSPKRESGEEFRMEKLNQLWEKAQRLHLPPVRLAELHADLKIQERDELAWKKLKLDGLDEDGEKEARLIRNLNVILAKYGLDGKKDARQVTSNSLSGTQEDGLDDPRLEKLWHKAKTSGKFSGEELDKLWREFLHHKEKVHEYNVLLETLSRTEEIHENVISPSDLSDIKGSVLHSRHTELKEKLRSINQGLDRLRRVSHQGYSTEAEFEEPRVIDLWDLAQSANLTDKELEAFREELKHFEAKIEKHNHYQKQLEIAHEKLRHAESVGDGERVSRSREKHALLEGRTKELGYTVKKHLQDLSGRISRARHNEL
B5: FLAG-tagged N-TIMP-3 (N-terminal domain of TIMP-3) (domain or fragment, UniProt P35625 24-143, looked up)
chain: CTCSPSHPQDAFCNSDIVIRAKVVGKKLVKEGPFGTLVYTIKQMKMYRGFTKMPHVQYIHTEASESLCGLKLEVNKYQYLLTGRVYDGKMYTGLCNFVERWDQLTLSQRKGLNYRYHLGC
B6: MMP-1ΔC/TIMP-3 complex (complex)
chain 1: FVLTEGNPRWEQTHLTYRIENYTPDLPRADVDHAIEKAFQLWSNVTPLTFTKVSEGQADIMISFVRGDHRDNSPFDGPGGNLAHAFQPGPGIGGDAHFDEDERWTNNFREYNLHRVAAHELGHSLGLSHSTDIGALMYPSYTFSGDVQLAQDDIDGIQAIYGRSQNPVQP
chain 2: CTCSPSHPQDAFCNSDIVIRAKVVGKKLVKEGPFGTLVYTIKQMKMYRGFTKMPHVQYIHTEASESLCGLKLEVNKYQYLLTGRVYDGKMYTGLCNFVERWDQLTLSQRKGLNYRYHLGCNCKIKSCYYLPCFVTSKNECLWTDMLSNFGYPGYQSKHYACIRQKGGYCSWYRGWAPPDKSIINATDP
notes: catalytic domain of human MMP-1; pro-domain removed with APMA; as m8; as m3
B7: ADAM-10/TIMP-3 complex (complex)
chain 1: TTSAEKNTCQLYIQTDHLFFKYYGTREAVIAQISSHVKAIDTIYQTTDFSGIRNISFMVKRIRINTTADEKDPTNPFRFPNIGVEKFLELNSEQNHDDYCLAYVFTDRDFDDGVLGLAWVGAPSGSSGGICEKSKLYSDGKKKSLNTGIITVQNYGSHVPPKVSHITFAHEVGHNFGSPHDSGTECTPGESKNLGQKENGNYIMYARATSGDKLNNNKFSLCSIRNISQVLEKKRNNCFVESGQPICGNGMVEQGEECDCGYSDQCKDECCFDANQPEGRKCKLKPGKQCSPSQGPCCTAQCAFKSKSEKCRDDSDCAREGICNGFTALCPASDPKPNFTDCNRHTQVCINGQCAGSICEKYGLEECTCASSDGKDDKELCHVCCMKKMDPSTCASTGSVQWSRHFSGRTITLQPGSPCNDFRGYCDVFMRCRLVDADGPLARLKKAIFSPELYENIAE
chain 2: CTCSPSHPQDAFCNSDIVIRAKVVGKKLVKEGPFGTLVYTIKQMKMYRGFTKMPHVQYIHTEASESLCGLKLEVNKYQYLLTGRVYDGKMYTGLCNFVERWDQLTLSQRKGLNYRYHLGCNCKIKSCYYLPCFVTSKNECLWTDMLSNFGYPGYQSKHYACIRQKGGYCSWYRGWAPPDKSIINATDP
modifications: 1:1 non-covalent complex; ADAM10 ectodomain (R&D Systems) taken by convention as mature extracellular region without prodomain (catalytic Zn2+), limits not given; TIMP-3 C-terminal/FLAG tag left …
B8: ADAMTS4-2/TIMP-3 complex (complex)
chain 1: FASLSRFVETLVVADDKMAAFHGAGLKRYLLTVMAAAAKAFKHPSIRNPVSLVVTRLVILGSGEEGPQVGPSAAQTLRSFCAWQRGLNTPEDSDPDHFDTAILFTRQDLCGVSTCDTLGMADVGTVCDPARSCAIVEDDGLQSAFTAAHELGHVFNMLHDNSKPCISLNGPLSTSRHVMAPVMAHVDPEEPWSPCSARFITDFLDNGYGHCLLDKPEAPLHLPVTFPGKDYDADRQCQLTFGPDSRHCPQLPPPCAALWCSGHLNGHAMCQTKHSPWADGTPCGPAQACMGGRCLHMDQLQDFNIPQAGGWGPWGPWGDCSRTCGGGVQFSSRDCTRPVPRNGGKYCEGRRTRFRSCNTEDCPTGSALTFREEQCAAYNHRTDLFKSFPGPMDWVPRYTGVAPQDQCKLTCQAQALGYYYVLEPRVVDGTPCSPDSSSVCVQGRCIHAGCDRIIGSKKKFDKCMVCGGDGSGC
chain 2: CTCSPSHPQDAFCNSDIVIRAKVVGKKLVKEGPFGTLVYTIKQMKMYRGFTKMPHVQYIHTEASESLCGLKLEVNKYQYLLTGRVYDGKMYTGLCNFVERWDQLTLSQRKGLNYRYHLGCNCKIKSCYYLPCFVTSKNECLWTDMLSNFGYPGYQSKHYACIRQKGGYCSWYRGWAPPDKSIINATDP
notes: ADAMTS-4 lacking the C-terminal spacer domain; as m16; as m3; also called [35S]TIMP-3/ADAMTS4-2
B9: ADAMTS5-2/TIMP-3 complex (complex)
chain 1: SISRARQVELLLVADASMARLYGRGLQHYLLTLASIANRLYSHASIENHIRLAVVKVVVLGDKDKSLEVSKNAATTLKNFCKWQHQHNQLGDDHEEHYDAAILFTREDLCGHHSCDTLGMADVGTICSPERSCAVIEDDGLHAAFTVAHEIGHLLGLSHDDSKFCEETFGSTEDKRLMSSILTSIDASKPWSKCTSATITEFLDDGHGNCLLDLPRKQILGPEELPGQTYDATQQCNLTFGPEYSVCPGMDVCARLWCAVVRQGQMVCLTKKLPAVEGTPCGKGRICLQGKCVDKTKKKYYSTSSHGNWGSWGSWGQCSRSCGGGVQFAYRHCNNPAPRNNGRYCTGKRAIYRSCSLMPCPPNGKSFRHEQCEAKNGYQSDAKGVKTFVEWVPKYAGVLPADVCKLTCRAKGTGYYVVFSPKVTDGTECRLYSNSVCVRGKCVRTGCDGIIGSKLQYDKCGVCGGDNSSCTKIVGTFNKKSKGYTDVVRIPEGATHIKVRQFKAKDQTRFTAYLALKKKNGEYLINGKYMISTSETIIDINGTVMNYSGWSHRDDFLHGMGYSATKEILIVQILATDPTKPLDVRYSFFVPKKSTPKVNSVTSHGSNKVGSHT
chain 2: CTCSPSHPQDAFCNSDIVIRAKVVGKKLVKEGPFGTLVYTIKQMKMYRGFTKMPHVQYIHTEASESLCGLKLEVNKYQYLLTGRVYDGKMYTGLCNFVERWDQLTLSQRKGLNYRYHLGCNCKIKSCYYLPCFVTSKNECLWTDMLSNFGYPGYQSKHYACIRQKGGYCSWYRGWAPPDKSIINATDP
notes: ADAMTS-5 lacking the C-terminal thrombospondin domain; as m17; as m3; also called [35S]TIMP-3/ADAMTS5-2

Molecular target: T1, low-density lipoprotein receptor-related protein 1 (LRP-1) (UniProt Q07954 20-4544)
T1 construct: low-density lipoprotein receptor-related protein 1 (LRP-1), bought from Biomac; source: bought: Biomac (Leipzig, Germany)
Test: SPR; BIAcore T200; LRP-1 immobilised on a CM5 chip by amine coupling (3000 RU); 25 °C; 150 mM NaCl, 10 mM CaCl2, 50 mM Tris-HCl, 0.01% Tween-20, pH 7.5; 30 μl/min; ligands or pre-formed complexes injected; one-site binding model; triplicate
Details: both partners purified

T1 sequence (Q07954 20-4544): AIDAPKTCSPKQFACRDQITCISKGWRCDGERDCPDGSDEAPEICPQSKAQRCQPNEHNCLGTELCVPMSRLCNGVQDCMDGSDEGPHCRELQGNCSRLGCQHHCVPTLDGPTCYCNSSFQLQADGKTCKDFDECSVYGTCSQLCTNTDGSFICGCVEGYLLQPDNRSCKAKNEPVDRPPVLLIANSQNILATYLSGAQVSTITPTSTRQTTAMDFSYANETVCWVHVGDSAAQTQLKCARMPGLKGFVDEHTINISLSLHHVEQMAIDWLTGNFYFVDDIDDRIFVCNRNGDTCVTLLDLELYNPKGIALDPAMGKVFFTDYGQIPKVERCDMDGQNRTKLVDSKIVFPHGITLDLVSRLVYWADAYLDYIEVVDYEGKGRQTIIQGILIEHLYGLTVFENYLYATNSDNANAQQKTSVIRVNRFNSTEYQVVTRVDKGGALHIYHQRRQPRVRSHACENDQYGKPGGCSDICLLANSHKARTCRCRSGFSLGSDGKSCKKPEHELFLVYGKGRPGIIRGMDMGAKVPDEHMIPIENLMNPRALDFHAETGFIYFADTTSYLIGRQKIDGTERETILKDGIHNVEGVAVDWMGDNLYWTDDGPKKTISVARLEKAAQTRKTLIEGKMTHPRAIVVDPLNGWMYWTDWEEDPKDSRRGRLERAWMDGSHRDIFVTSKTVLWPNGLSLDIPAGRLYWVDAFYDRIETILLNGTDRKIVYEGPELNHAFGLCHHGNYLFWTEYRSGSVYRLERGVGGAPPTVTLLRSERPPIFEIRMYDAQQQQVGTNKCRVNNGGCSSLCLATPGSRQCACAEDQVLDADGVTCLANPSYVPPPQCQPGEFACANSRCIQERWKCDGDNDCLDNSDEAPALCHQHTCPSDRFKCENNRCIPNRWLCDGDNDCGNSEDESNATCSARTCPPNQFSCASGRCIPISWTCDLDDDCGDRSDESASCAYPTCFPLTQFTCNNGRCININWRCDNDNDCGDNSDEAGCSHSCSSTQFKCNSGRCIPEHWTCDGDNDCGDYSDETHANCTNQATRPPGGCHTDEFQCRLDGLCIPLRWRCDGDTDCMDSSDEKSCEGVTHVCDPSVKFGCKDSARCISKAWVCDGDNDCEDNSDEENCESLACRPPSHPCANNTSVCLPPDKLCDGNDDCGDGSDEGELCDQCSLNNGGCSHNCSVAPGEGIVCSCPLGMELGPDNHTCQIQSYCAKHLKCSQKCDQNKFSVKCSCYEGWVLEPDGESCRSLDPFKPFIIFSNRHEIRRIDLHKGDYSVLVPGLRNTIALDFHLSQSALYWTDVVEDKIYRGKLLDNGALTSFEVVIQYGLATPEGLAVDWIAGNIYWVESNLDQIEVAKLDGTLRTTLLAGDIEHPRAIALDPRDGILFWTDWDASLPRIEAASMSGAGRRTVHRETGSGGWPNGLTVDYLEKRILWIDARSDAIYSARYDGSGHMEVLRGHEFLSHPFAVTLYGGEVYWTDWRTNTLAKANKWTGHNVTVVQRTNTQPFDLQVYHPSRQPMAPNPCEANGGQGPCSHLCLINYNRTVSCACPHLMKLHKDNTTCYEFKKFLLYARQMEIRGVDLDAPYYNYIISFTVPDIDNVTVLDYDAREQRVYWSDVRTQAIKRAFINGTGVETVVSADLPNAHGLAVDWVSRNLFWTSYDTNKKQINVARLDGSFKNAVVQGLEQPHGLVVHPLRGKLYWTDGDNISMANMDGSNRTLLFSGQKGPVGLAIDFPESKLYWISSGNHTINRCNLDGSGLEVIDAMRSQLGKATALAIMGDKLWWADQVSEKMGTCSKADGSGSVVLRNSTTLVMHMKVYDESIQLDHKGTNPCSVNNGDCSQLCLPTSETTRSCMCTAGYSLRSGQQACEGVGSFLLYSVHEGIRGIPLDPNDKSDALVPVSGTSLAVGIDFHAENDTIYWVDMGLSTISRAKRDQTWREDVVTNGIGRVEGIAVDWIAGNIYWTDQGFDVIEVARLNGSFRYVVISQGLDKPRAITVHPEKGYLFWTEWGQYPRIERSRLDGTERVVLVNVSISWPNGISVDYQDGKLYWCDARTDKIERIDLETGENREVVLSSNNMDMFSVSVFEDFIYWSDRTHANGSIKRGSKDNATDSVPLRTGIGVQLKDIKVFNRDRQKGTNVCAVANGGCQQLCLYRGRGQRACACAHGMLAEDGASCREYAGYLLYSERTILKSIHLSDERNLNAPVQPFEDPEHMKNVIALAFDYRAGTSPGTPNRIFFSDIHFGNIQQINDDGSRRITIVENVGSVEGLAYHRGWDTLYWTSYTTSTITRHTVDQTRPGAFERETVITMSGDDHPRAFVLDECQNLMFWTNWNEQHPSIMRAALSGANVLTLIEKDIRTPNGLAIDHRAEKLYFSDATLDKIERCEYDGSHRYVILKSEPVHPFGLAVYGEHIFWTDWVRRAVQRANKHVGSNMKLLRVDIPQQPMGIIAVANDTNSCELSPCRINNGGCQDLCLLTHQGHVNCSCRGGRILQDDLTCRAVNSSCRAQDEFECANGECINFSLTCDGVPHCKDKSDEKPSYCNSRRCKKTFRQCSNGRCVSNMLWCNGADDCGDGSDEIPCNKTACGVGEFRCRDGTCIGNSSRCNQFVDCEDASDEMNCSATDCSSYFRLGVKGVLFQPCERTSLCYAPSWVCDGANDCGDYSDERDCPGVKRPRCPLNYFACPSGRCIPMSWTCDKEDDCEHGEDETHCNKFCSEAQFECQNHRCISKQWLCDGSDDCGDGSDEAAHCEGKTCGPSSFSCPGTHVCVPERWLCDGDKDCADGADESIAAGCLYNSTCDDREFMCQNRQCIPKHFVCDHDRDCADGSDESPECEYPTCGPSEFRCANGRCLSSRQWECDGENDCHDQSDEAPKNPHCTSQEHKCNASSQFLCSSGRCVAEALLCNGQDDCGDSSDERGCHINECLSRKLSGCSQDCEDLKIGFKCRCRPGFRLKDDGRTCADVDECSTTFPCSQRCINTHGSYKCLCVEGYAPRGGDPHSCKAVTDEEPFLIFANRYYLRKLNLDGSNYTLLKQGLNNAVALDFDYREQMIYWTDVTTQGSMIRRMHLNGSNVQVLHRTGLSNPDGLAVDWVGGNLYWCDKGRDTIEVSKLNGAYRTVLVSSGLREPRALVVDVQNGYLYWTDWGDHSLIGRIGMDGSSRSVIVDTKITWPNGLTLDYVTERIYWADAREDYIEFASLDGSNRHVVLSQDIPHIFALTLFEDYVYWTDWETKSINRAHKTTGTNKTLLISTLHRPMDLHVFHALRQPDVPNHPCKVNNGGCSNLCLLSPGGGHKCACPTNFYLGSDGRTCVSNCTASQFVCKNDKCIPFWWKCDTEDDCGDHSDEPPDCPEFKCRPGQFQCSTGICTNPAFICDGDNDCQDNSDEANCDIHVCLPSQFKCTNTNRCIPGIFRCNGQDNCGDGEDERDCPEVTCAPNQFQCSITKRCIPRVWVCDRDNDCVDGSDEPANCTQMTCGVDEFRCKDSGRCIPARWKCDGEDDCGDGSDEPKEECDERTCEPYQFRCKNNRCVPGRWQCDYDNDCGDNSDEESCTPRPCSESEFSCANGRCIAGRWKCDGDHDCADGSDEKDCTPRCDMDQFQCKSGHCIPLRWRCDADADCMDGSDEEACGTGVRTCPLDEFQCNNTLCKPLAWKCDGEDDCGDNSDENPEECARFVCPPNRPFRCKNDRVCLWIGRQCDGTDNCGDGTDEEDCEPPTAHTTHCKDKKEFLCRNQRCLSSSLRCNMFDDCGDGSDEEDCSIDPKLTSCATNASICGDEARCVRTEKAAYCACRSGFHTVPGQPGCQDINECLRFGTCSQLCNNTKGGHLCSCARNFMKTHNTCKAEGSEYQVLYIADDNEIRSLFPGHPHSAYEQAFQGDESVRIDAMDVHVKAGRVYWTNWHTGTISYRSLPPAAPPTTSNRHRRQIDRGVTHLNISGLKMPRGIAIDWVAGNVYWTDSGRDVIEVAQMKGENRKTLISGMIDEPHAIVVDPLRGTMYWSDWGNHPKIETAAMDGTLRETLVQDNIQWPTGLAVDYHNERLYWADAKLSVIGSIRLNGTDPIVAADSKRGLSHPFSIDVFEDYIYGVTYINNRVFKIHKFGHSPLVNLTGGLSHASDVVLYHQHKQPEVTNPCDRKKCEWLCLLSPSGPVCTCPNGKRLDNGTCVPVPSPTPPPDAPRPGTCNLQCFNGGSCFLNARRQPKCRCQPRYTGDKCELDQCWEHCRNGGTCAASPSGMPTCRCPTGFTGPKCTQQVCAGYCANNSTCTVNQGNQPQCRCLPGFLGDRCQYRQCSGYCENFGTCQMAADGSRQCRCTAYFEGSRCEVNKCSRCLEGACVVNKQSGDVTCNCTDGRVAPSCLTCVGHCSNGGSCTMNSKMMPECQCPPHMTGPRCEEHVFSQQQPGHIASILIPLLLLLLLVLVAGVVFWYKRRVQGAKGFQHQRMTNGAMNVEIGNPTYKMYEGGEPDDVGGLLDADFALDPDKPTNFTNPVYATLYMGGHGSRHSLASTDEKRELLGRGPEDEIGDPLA

Point of comparison: B7, Kd 8.67 nM. Against it:
- B1 — 9-fold higher, 77.6 nM
- B2 — 3.8-fold lower, 2.27 nM
- B3 — 3.6-fold higher, 30.9 nM
- B4 — 14-fold lower, 0.6 nM
- B5 — 1.5-fold lower, 5.65 nM
- B6 — within 1.5-fold, 6.42 nM
- B8 — 2.6-fold lower, 3.3 nM
- B9 — 1.9-fold lower, 4.5 nM

Point of comparison: B5, koff 0.00321 s⁻¹. Against it:
- B1 — within 1.5-fold, 0.00381 s⁻¹
- B2 — 2.1-fold higher, 0.00678 s⁻¹
- B3 — 3.4-fold higher, 0.0109 s⁻¹
- B4 — within 1.5-fold, 0.00419 s⁻¹
- B6 — within 1.5-fold, 0.00254 s⁻¹
- B7 — within 1.5-fold, 0.00386 s⁻¹
- B8 — within 1.5-fold, 0.00217 s⁻¹
- B9 — 1.6-fold lower, 0.00206 s⁻¹

Point of comparison: B4, kon 6.88e+06 M⁻¹ s⁻¹. Against it:
- B1 — 140-fold lower, 49000 M⁻¹ s⁻¹
- B2 — 2.3-fold lower, 2.99e+06 M⁻¹ s⁻¹
- B3 — 19-fold lower, 353000 M⁻¹ s⁻¹
- B5 — 12-fold lower, 567000 M⁻¹ s⁻¹
- B6 — 17-fold lower, 396000 M⁻¹ s⁻¹
- B7 — 15-fold lower, 446000 M⁻¹ s⁻¹
- B8 — 10-fold lower, 659000 M⁻¹ s⁻¹
- B9 — 15-fold lower, 457000 M⁻¹ s⁻¹
